In the Immune Epitope Database (IEDB):

Each sequence was assayed against HLA-A*02:01 (assay: IEDB peptide-MHC binding, purified MHC/competitive/radioactivity; filed as Kd, often an IC50 or EC50 that approximates it; ≥ and ≤ were set here for values at or beyond the usual limits of such assays). Settings: source organism: Trypanosoma cruzi.
FLLLGLWGFA showed a Kd of 207 nM. With FLYNRPLSV the Kd was 146 nM. With FVDYNFTIV the Kd was 240 nM. FVNHDFTVV was tested, and the Kd was 300 nM. With GIRPYEILA the Kd was 33 nM. Sequence IAGGVMAVV has a Kd of 196 nM. Sequence IVMGNGTLV has a Kd of 998 nM. Work on KLFPEVIDL yielded a Kd of 203 nM. LLGLWGLTGL was tested, and the Kd was 1.3 nM. With LLLGLWGFAA the Kd was 534 nM. For LLLLGLWGL, the Kd was 22 nM. For LLPSLFLLL, the Kd was 125 nM. LLYSDDALHL showed a Kd of 317 nM. Work on MLQDGNKGSV yielded a Kd of 840 nM. PLLLLGLWGL was tested, and the Kd was 643 nM. SVYVDAKLV showed a Kd of 102 nM. Work on VLAKDGTEV yielded a Kd of 67 nM. VLLPSLFLL was tested, and the Kd was 36 nM. VLLPSLFLLL was tested, and the Kd was 99 nM. For WVFPESISPV, the Kd was 109 nM.
